Measurements reported in the supplement of paper PMC10065799, “High-throughput profiling of sequence recognition by tyrosine kinases and SH2 domains using bacterial peptide display” (eLife, 2023).

Assays:
c-Src SH2 = assay: SH2 binding enrichment of the phosphorylated peptide, bacterial display (enrichment ratio); higher = better substrate or ligand; peptides without Tyr show the background
SHP2-C SH2 = assay: as above
Grb2 SH2 = Grb2 SH2 (UniProt P62993); assay: as above
MERTK = MERTK (UniProt Q12866); assay: phosphorylation enrichment, bacterial display (enrichment ratio); higher = better substrate or ligand; peptides without Tyr show the background
EPHB2 = EPHB2 (UniProt P29323); assay: as above
EPHB1 = EPHB1 (UniProt P54762); assay: as above
c-Abl (mouse) = assay: as above
FGFR3 = FGFR3 (UniProt P22607); assay: as above
Jak2 = Jak2 (UniProt O60674); assay: as above
Hck = Hck (UniProt P08631); assay: as above
c-Src = assay: as above
Fes = Fes (UniProt P07332); assay: as above
Fer (mouse) = assay: as above
FGFR1 = FGFR1 (UniProt P11362); assay: as above
Fyn = Fyn (UniProt P06241); assay: as above
AncSZ = assay: as above
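For SH2 binding enrichment of the phosphorylated peptide, bacterial display in this document: peptide library displayed on the E. coli surface as eCPX fusions, selected cells deep-sequenced, score is each peptide's frequency after selection divided by its frequency in the input.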
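For phosphorylation enrichment, bacterial display in this document: 11-residue human phosphosite peptides and single-mutation variants displayed on the E. coli surface, counted by deep sequencing, each peptide's frequency after selection divided by its frequency in the unselected input library; frequency after pTyr selection over input frequency; kinase dosed for 20-30% of maximal phosphorylation in three min.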

Hck, sequence (P08631 whole entry, looked up): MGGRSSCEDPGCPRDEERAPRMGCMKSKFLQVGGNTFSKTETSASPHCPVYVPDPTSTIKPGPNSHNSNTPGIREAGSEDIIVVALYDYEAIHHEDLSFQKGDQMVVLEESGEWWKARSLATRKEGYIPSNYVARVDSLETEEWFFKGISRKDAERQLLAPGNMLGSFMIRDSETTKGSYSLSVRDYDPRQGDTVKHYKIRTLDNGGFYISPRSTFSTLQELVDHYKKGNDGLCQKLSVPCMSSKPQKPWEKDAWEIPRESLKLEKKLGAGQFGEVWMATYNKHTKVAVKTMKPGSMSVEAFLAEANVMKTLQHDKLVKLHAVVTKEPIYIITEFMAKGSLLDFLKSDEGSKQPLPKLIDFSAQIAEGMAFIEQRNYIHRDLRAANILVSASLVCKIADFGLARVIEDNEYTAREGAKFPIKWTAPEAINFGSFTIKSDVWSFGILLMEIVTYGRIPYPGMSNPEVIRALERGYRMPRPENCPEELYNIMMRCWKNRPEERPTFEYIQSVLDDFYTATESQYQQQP
Grb2 SH2, sequence (P62993 whole entry, looked up): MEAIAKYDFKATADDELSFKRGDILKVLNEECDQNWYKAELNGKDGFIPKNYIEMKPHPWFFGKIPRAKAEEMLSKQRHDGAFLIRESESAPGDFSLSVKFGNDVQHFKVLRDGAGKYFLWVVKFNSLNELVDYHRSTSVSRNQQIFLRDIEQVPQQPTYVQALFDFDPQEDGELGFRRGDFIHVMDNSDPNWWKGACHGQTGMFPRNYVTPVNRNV
Fyn, sequence (P06241 whole entry, looked up): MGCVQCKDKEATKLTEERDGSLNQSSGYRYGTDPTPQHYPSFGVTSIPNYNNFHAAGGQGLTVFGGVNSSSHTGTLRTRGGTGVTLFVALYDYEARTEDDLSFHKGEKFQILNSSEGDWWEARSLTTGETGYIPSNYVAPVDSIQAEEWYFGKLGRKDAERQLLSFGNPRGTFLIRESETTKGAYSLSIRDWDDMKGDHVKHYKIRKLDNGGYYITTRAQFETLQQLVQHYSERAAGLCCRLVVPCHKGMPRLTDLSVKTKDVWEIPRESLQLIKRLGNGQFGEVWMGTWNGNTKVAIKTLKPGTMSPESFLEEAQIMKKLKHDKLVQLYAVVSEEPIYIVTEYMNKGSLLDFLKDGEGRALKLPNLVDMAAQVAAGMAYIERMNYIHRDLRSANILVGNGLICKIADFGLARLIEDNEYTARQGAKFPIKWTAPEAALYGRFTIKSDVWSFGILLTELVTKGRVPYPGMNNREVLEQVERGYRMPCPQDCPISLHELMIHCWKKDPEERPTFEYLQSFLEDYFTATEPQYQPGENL
MERTK, sequence (Q12866 whole entry, looked up): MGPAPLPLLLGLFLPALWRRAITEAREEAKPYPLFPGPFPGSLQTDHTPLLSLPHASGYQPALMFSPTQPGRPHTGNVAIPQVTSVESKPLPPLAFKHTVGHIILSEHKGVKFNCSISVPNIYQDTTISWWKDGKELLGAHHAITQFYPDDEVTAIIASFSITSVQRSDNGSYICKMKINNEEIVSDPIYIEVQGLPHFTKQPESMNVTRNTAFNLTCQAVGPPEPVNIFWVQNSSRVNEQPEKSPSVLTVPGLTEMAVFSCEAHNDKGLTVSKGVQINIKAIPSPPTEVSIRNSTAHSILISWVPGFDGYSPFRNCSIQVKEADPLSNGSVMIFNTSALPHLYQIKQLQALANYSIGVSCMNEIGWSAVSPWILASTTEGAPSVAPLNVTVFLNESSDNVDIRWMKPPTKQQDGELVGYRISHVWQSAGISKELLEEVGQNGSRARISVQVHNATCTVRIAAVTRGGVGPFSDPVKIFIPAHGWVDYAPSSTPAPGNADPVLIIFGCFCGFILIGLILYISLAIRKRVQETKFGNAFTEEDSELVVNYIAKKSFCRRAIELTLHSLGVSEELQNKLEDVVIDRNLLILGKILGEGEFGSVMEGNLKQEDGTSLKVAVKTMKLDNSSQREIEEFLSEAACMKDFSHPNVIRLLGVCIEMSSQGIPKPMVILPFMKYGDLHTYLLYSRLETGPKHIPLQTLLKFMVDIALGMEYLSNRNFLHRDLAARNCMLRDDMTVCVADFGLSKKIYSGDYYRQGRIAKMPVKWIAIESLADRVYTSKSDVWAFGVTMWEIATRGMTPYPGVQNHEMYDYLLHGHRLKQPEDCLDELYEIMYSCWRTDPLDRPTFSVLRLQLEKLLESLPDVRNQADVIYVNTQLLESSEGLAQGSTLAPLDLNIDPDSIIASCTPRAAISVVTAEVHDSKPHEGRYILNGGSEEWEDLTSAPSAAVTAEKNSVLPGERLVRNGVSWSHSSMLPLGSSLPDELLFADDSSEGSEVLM
FGFR3, sequence (P22607 whole entry, looked up): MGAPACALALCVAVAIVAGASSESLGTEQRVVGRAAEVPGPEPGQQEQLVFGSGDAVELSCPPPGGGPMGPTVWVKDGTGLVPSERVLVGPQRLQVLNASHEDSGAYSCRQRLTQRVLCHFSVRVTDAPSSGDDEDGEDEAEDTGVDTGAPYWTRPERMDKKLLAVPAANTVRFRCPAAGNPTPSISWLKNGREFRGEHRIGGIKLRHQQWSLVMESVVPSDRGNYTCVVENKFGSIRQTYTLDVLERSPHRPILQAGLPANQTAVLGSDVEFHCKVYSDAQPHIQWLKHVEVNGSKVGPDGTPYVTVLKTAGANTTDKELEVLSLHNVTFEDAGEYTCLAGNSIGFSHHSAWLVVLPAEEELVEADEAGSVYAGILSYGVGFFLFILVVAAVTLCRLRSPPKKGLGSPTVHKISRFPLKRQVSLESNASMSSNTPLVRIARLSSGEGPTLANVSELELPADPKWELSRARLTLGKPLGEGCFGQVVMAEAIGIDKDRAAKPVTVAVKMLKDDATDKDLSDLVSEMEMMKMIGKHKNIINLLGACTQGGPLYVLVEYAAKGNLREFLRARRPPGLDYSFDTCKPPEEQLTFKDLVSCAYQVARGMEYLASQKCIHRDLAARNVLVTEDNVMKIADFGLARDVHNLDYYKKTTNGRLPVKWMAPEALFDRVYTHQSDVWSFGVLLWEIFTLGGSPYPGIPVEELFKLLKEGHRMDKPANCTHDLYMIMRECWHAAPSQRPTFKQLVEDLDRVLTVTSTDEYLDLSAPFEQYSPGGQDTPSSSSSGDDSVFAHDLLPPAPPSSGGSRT
EPHB1, sequence (P54762 whole entry, looked up): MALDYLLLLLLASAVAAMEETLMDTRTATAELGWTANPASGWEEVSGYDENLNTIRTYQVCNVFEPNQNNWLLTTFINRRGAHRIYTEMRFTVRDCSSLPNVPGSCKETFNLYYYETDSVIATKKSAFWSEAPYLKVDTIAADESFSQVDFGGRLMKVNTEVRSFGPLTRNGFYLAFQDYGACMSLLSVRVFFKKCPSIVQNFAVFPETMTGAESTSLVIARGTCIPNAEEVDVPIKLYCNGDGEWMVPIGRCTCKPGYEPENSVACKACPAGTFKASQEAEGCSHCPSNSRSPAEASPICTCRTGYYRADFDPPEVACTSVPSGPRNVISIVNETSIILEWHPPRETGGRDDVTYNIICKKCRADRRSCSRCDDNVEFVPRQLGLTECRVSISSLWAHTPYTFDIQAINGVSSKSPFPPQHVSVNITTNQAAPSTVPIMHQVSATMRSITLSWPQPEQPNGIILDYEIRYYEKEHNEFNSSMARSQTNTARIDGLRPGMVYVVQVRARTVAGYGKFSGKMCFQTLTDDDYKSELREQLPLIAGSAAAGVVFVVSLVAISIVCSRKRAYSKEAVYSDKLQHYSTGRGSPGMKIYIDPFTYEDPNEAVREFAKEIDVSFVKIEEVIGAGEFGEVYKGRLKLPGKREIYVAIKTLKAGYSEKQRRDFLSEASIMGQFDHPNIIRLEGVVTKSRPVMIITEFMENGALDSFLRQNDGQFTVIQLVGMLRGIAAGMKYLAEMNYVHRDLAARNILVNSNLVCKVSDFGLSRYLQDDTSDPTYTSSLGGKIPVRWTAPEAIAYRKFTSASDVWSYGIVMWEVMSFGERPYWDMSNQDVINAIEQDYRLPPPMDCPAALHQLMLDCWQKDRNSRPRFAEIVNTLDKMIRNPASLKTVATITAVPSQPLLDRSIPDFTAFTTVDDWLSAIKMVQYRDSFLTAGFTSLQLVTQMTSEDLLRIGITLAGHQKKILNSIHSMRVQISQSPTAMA
FGFR1, sequence (P11362 whole entry, looked up): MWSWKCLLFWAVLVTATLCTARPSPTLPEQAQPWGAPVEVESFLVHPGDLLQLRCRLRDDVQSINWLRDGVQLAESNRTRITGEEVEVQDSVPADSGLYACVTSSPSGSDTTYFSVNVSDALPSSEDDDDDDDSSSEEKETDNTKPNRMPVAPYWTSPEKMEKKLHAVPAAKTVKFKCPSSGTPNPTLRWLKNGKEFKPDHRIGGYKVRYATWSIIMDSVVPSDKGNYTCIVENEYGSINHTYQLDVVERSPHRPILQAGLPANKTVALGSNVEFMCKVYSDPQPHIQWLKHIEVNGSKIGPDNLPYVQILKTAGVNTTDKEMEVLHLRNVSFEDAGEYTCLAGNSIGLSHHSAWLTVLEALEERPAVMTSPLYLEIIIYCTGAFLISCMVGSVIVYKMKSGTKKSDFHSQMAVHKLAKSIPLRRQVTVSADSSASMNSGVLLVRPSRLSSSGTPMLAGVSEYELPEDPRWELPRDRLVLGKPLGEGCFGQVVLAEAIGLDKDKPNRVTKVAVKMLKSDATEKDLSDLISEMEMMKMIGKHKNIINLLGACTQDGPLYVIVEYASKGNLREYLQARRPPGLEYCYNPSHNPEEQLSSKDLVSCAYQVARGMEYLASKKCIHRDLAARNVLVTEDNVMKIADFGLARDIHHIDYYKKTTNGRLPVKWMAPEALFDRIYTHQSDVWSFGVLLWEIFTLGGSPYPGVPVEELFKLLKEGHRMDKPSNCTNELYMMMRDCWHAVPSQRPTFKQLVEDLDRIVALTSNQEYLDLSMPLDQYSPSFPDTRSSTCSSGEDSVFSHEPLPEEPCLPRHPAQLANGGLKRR

Sequence	SH2 binding enrichment (c-Src SH2)	SH2 binding enrichment (SHP2-C SH2)	SH2 binding enrichment (Grb2 SH2)	phosphorylation enrichment (MERTK)	phosphorylation enrichment (EPHB2)	phosphorylation enrichment (EPHB1)	phosphorylation enrichment (c-Abl (mouse))	phosphorylation enrichment (FGFR3)	phosphorylation enrichment (Jak2)	phosphorylation enrichment (Hck)	phosphorylation enrichment (c-Src)	phosphorylation enrichment (Fes)	phosphorylation enrichment (Fer (mouse))	phosphorylation enrichment (FGFR1)	phosphorylation enrichment (Fyn)	phosphorylation enrichment (AncSZ)
QRAADYFSQQM [GBP6_Y333_YF]	0.338	0.353	0.789	0.352	0.57	0.469	0.586	0.634	0.698	0.488	0.687	0.921	0.491	0.558	0.546	1
TLSGTYQYIIA [FOXL2_Y81_I80T]	1.93	1.43	0.828	7.42	2.21	5.25	1.05	3.44	1.05	3.11	1.17	1.08	5.51	5.91	1.06	1.05
LFSLGYHQSLW [GANAB_Y396_R400L]	0.61	0.59	0.98	0.535	0.702	0.627	0.666	0.786	0.7	0.475	0.42	0.986	0.474	0.51	0.475	0.827
LSCLAYSGKDA [FXN_Y205_S202C]	0.537	0.626	0.719	0.558	0.643	0.844	1.15	0.976	1.24	0.527	0.665	1.44	0.525	0.495	0.52	1.23
FLLRVYSIFSK [SGCE_Y38_T36R]	1.51	1.84	2.26	0.634	0.402	0.321	0.987	1.28	0.804	0.504	1.49	1.02	0.433	0.574	0.437	0.886
IMWDSYTTNKV [GNB3_Y85_V81M]	0.66	0.675	0.749	0.305	0.437	0.544	0.553	0.64	0.91	0.421	0.369	0.885	0.392	0.451	0.33	0.945
LTTEAYEWEPR [ELMOD3_Y61]	0.823	0.64	0.744	0.724	1.24	1.11	0.831	1.06	1.16	0.943	1.31	1.89	1.07	1.08	1.1	1.69
TDHLQYFDSNK [ARAP1_Y359_R358Q]	0.536	0.94	1.2	0.607	0.651	0.721	0.695	0.84	0.914	0.697	0.656	1.31	0.654	0.928	0.79	0.809
YNDSAYNQQLI [ZPLD1_Y198_T197A]	0.388	0.552	0.833	0.388	0.527	0.455	0.634	0.68	0.696	0.48	0.418	0.93	0.46	0.499	0.49	0.987
SLNEVYTKNKT [MSH2_Y563_E562V]	0.456	0.581	0.722	0.423	0.411	0.375	0.437	0.444	0.514	0.38	0.431	0.727	0.328	0.446	0.411	0.641
CKRQFYLFKGK [RSPO4_Y112_YF]	1.07	1.05	1.28	0.489	0.546	0.385	0.497	0.591	0.745	0.4	0.377	1.01	0.403	0.446	0.431	0.863
GEYYRYLAEVA [YWHAG_Y133_D129E]	0.669	0.848	0.827	1.73	2.05	1.13	1.88	7.42	4.37	1.4	2.34	0.858	0.374	9.65	1.52	2.12
PNRILYGDFWQ [MYH6_Y717_R721W]	0.467	0.666	0.807	0.849	0.939	0.689	0.778	0.935	0.999	2.16	4.24	1.29	0.626	0.555	5.79	1.1
QRALLYEDALY [UNC13D_Y56]	0.843	0.542	0.825	5.12	12.3	12.3	1.04	0.975	1.08	7.73	6.09	2.05	17.1	0.861	7.7	2.17
TISPYYCQSLF [CRYAA_Y48_R49C]	2.21	0.743	0.867	5.18	0.543	0.934	1.13	4.43	1.26	0.79	1.76	1.13	0.939	5.32	1.12	1.1
DTKDDYNALSV [IL17RB_Y457]	0.498	0.668	0.869	0.426	0.625	0.495	0.679	0.718	0.916	0.546	0.443	1.07	0.483	0.544	0.599	1.08
VDGSVYELHPS [GCK_Y413_K414E]	0.743	1.01	0.944	3.82	3.42	2.35	0.94	0.676	0.981	8.06	9.02	1.09	16	0.597	12.1	1.56

Sequence	SH2 binding enrichment (c-Src SH2)	SH2 binding enrichment (SHP2-C SH2)	SH2 binding enrichment (Grb2 SH2)	phosphorylation enrichment (MERTK)	phosphorylation enrichment (EPHB2)	phosphorylation enrichment (EPHB1)	phosphorylation enrichment (c-Abl (mouse))	phosphorylation enrichment (FGFR3)	phosphorylation enrichment (Jak2)	phosphorylation enrichment (Hck)	phosphorylation enrichment (c-Src)	phosphorylation enrichment (Fes)	phosphorylation enrichment (Fer (mouse))	phosphorylation enrichment (FGFR1)	phosphorylation enrichment (Fyn)	phosphorylation enrichment (AncSZ)
DHYNQYEQQKM [CHD7_Y75]	0.472	0.824	0.56	0.359	0.402	0.444	0.445	0.524	0.782	0.434	0.478	0.728	0.451	0.438	0.639	0.844
RNFGTYTAGLS [RHBDD1_Y264_D262G_YF]	0.437	0.684	0.631	0.302	0.477	0.377	0.445	1.07	0.315	0.657	0.517	0.495	0.798	0.483	0.441	0.702
DQGEQYKKELE [LMNA_Y259_V256G]	0.517	0.716	0.844	0.467	0.676	0.801	1.15	0.682	1.31	0.535	0.522	1.39	0.642	0.464	0.488	1.39
RRIHSYRGQLW [VHL_Y112_H115Q]	0.343	0.45	0.637	0.535	0.438	0.491	0.906	0.596	0.925	0.664	0.776	0.813	0.617	0.536	0.883	1.25
DTMQTYNGNDE [TSPAN7_Y131_A127T]	0.44	0.578	0.874	0.382	0.632	0.589	0.758	0.817	0.976	0.642	0.502	1.17	0.557	0.695	0.491	0.976
FHKALYTVRTF [PDE6C_Y266_S270T_YF]	0.536	0.722	0.853	0.523	0.529	0.567	0.838	0.691	0.907	0.67	0.729	1.02	0.427	0.582	0.581	0.914
QNTGDDFDLFG [PTPN11_Y62_Y62D_YF]	0.402	0.442	0.768	0.634	1.02	0.599	1.11	1.1	1.6	0.748	0.689	1.75	0.7	0.936	0.54	1.7
REIIAYQPYGK [PRKCG_Y529_P524R]	0.808	0.538	0.833	0.294	0.617	0.429	0.467	0.415	0.531	0.563	0.405	0.721	0.357	0.329	0.625	0.83
DKEKWYPLGTS [PIK3C2G_Y1438_N1442T]	0.403	0.513	0.852	0.458	0.496	0.544	0.591	0.642	0.765	0.44	0.486	0.931	0.55	0.409	0.505	0.821
FIILIYAMKKK [SLCO1B1_Y645_YF]	0.965	1.66	1.83	1.35	0.385	0.179	0.51	0.377	0.447	0.465	0.32	0.583	0.354	0.509	0.321	0.323
EGELRYMHSRV [ABCD1_Y281_K276E]	0.432	0.513	0.677	0.35	0.439	0.516	0.519	0.485	0.86	0.34	0.373	0.689	0.395	0.428	0.507	0.688
LIEQAYDNPHE [PRPF8_Y871]	5.87	0.729	0.828	0.43	0.824	0.638	0.767	0.695	0.811	0.86	0.472	1.16	0.602	0.566	0.645	1.12
FEEDSYVTRSQ [RET_Y905_K907T_YF]	0.419	0.548	0.878	0.47	0.829	0.651	0.912	1.08	1.27	0.531	0.617	1.33	0.529	0.452	0.5	1.18
KVNKIYFPDFI [LIG3_Y767_YF]	0.692	0.844	0.946	0.473	0.399	0.427	0.566	1.26	0.712	0.543	0.478	0.855	0.4	1.24	0.455	0.799
TCFDKYTGNTF [FN1_Y101_YF]	0.412	0.98	0.625	0.501	0.772	0.813	0.93	0.92	1.16	0.567	0.544	1.18	0.647	0.508	0.563	1.35
TDECEYDELIV [TGM1_Y136_Y134C]	0.139	0.29	–	0.604	0.842	1.09	0.742	0.865	0.788	1.8	0.529	1.13	1.61	0.57	2.06	1.41
